This assay concerns the target NLRC4 (mouse) (UniProt Q3UP24).

“PrgJ (purified, histidine-tagged) (from UniProt P41785) (ligand)”: the IL-1β secretion (ELISA) by LPS-primed BMM one hour after protein transfection came to 800 pg/mL.
“FliC (purified, histidine-tagged) (from UniProt P06179) (ligand)” returned an IL-1β secretion (ELISA) by LPS-primed BMM one hour after protein transfection of 800 pg/mL.

Source of the values: patent US20100322957A1.
